Test results: patent publication US7192720

Tests used:
[1] = molecular target: soluble rhTNFR-1 extracellular domain protein (human) (UniProt P19438); assay: Western blot of soluble hTNFR probed with AF225 pre-mixed with 1:10 BAF225-3 : wild type T7 phage; plaque lift of recovered phage with AF225
[2] = molecular target: soluble rhTNFR-1 extracellular domain protein (human) (UniProt P19438); assay: Western blot of soluble hTNFR probed with AF225 pre-mixed with 1:10 BAF225-3 : wild type T7 phage; phage eluted from excised bands and titered

UniProt P19438, sequence (P19438 30-211 limits assumed): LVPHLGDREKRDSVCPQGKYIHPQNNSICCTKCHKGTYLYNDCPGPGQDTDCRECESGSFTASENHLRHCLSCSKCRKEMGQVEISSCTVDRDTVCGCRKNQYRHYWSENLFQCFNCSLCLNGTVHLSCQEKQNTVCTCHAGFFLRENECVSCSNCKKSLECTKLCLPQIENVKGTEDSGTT

- enrichment of target phage relative to negative phage [1]: 190 fold
- percent of phage recovered from the TNFR band that were target phage [1]: 95%
- fold more phage recovered from the TNFR band than from the negative control [2]: 100 fold
Substance: goat anti-hTNFR polyclonal antibody (AF225)
